Laboratory results: US20100143254A1

Molecular target: human FcRn (human) (UniProt P55899)
Test: SPR (BIAcore) steady state, immobilized IgG, human FcRn 16-2860 nM, pH 6.0

Row | Kd | Substance
1 | 2.68 µM | MEDI-524 (wild type) (antibody)
2 | 15.9 µM | MEDI-524 L309N (antibody)
3 | 11.3 µM | MEDI-524 R255V (antibody)
4 | 3.03 µM | MEDI-524 G385S + Q386I (antibody)
